Laboratory results from patent US6444641.

Biological target: serum albumin (UniProt P08835)
Test: cell-based or functional assay

Chain of UniProt P08835 (P08835 25-607 limits assumed): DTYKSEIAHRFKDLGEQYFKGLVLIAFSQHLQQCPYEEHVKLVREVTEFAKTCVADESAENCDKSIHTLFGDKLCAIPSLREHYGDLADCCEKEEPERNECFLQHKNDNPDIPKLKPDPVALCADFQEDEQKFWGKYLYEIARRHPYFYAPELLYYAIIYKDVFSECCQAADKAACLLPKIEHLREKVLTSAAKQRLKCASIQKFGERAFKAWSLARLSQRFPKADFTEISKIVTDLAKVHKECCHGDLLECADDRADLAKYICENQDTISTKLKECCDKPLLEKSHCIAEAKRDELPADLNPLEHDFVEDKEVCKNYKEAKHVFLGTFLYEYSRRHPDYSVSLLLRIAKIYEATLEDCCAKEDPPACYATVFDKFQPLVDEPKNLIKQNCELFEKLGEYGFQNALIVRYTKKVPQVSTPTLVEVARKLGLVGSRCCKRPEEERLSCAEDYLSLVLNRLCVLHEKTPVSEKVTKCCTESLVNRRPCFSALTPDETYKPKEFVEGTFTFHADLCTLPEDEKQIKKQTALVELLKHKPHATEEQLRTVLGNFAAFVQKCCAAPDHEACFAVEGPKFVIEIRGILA

plasma drug levels at 100 minutes after subcutaneous injection (6 nmol/kg) in pigs, by double antibody radioimmunoassay: 18 fold
Substance: B29-N^ε-myristoyl human insulin (from UniProt P01308 90-110; P01308 25-54) (ligand)
